Experimental data published in patent US20250277038A1 (SHANGHAI JEMINCARE PHARMACEUTICAL, published 2025).

The binders below were run against T1, human PD-L1 protein on HEK293 cell (human, UniProt Q9NZQ7 19-290) (assay: flow cytometry screening on HEK293-PD-L1 cells).
T1 construct: whole, on cells; also called HEK293-hPD-L1; HEK293-PD-L1
Method: Clones that specifically bind to HEK293-PD-L1 cells and can simultaneously block the binding of receptor PD-1 to HEK293-hPD-L1 cells were screened from the fusion plate by flow cytometer and subcloning was carried out by limited dilution method, and finally a monoclonal that can secrete specific antibodies was screened. Monoclonal antibodies were obtained by small-scale production and purification in serum-free medium for subsequent identification, including the detection of the binding ability of antibodies to HEK293-PD-L1, the function of blocking binding of PD-1 to HEK293-hPD-L1 cell, and the mixed lymphocyte experiment to finally obtain candidate anti-human PD-L1 monoclonal antibody 50G2-3. The sequences of the variable regions of murine hybridoma clone 50G2-3 obtained by monoclonal antibody sequencing is as follows: […]

T1 sequence (Q9NZQ7 19-290): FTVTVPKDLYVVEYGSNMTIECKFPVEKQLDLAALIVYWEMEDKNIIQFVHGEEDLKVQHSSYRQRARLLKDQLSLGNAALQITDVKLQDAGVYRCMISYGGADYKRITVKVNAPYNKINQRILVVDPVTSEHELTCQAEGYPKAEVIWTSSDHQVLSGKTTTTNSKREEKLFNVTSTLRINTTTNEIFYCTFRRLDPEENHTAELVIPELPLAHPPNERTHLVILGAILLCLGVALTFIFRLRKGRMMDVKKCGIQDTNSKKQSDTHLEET

Row | binding result | Binder
1 | binds | anti-human PD-L1 monoclonal antibody 50G2-3 (antibody, V domains shown, also called murine hybridoma clone 50G2-3) VH: EVQLVESGGGLVQPGRSLKLSCVASGFTFSNFWMTWIRQAPGKGLEWVASITHSGGITYYPDSVKGRFTISRDDAKSTLYLQMNSLRSEDTATYYCSRDPTEAPFDYWGQGVMVTVSS VL: DIQMTQSPPSLSASLGDQVTITCQASQNINNYIAWYQQKPGKAPRQLIRYTSTLVSGTPSRFSGSGSGKDYSFSISNVESEDIASYYCLQYDNVPNTFGAGTKLELK

The binders below were run against T2, human PD-L1 (Acro, Catalog Number: H5229) (human, UniProt Q9NZQ7 19-238) (assay: BLI, Octet RED96e, antibody on AHC sensor, antigen 100 nM, 1:1 fit).
T2 construct: Soluble antigen in the BLI assay; also called antigen
Method: (2) Detection of samples on machines (Octet Data Acquisition 11.1.0.11): First, the sample was added into a 96-well plate (Greiner bio-one, 655209) with a system of 200 μL/well. Then the software parameters were set, the plate temperature was set to 30° C., and the frequency of collecting standard dynamic signals was 5.0 HZ. Next, the AHC sensor (Fortébio, Catalog Number: 18-0015) was pre-wetted with 1xPBST for 10 minutes, and then the sample was detected on the instrument. Each cycle incluedes the following steps: 1) immersing in buffer for 60 seconds; 2) detecting whether the antigen nonspecifically binding to the sensor; 3) regeneration of 10 mM glycine solution with pH 1.7; 4) immersing in the buffer for 60 seconds; 5) immobilizing the antibody on the sensor for 20 seconds; 6) immersing the sensor in the buffer for 180 seconds; 7) the antigen binding to the antibody for 180 seconds; 8) dissociating the antigen from the antibody for 10 minutes; 9) regenerating the sensor.

T2 sequence (Q9NZQ7 19-238 limits assumed): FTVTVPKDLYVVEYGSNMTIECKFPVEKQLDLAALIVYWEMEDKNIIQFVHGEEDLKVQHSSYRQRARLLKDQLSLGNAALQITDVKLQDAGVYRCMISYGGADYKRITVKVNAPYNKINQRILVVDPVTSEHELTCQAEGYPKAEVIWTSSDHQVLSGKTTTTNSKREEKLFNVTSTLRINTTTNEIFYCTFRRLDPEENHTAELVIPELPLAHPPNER

Row | Kd | koff | kon | Binder
2 | 0.302 nM | 0.000289 s⁻¹ | 958000 M⁻¹ s⁻¹ | 1910G2HzL7H7 (antibody, V domains shown, Only the variable domains are tied to the name; Full chains are not tied to the name; also called humanized antibody 1910G2HzL7H7; 1910G2HzL7 + 1910G2HzH7) VH: EVQLVESGGGLVQPGGSLRLSCAASGFTFSNFWMTWVRQAPGKGLEWVASITHSGGITYYADSVKGRFTISRDDSKSTLYLQMNSLRAEDTAVYYCSRDPTEAPFDYWGQGTLVTVSS VL: DIQMTQSPSSLSASVGDRVTITCQASQNINNYIAWYQQKPGKAPKQLIRYTSTLVSGVPSRFSGSGSGKDYTFTISSLQPEDIATYYCLQYDNVPNTFGQGTKLEIK
3 | 0.16 nM | 0.000165 s⁻¹ | 1.03e+06 M⁻¹ s⁻¹ | 1910G2HzL4H4 (antibody, V domains shown, Only the variable domains are tied to the name; Full chains are not tied to the name; also called humanized antibody 1910G2HzL4H4; 1910G2HzL4 + 1910G2HzH4) VH: EVQLVESGGGLVQPGGSLRLSCAASGFTFSNFWMTWVRQAPGKGLEWVASITHSGGITYYPDSVKGRFTISRDDSKNTLYLQMNSLRAEDTAVYYCSRDPTEAPFDYWGQGTLVTVSS VL: DIQMTQSPSSLSASVGDRVTITCQASQNINNYIAWYQQKPGKAPKQLIRYTSTLVSGVPSRFSGSGSGKDYTFTISSLQPEDIATYYCLQYDNVPNTFGQGTKLEIK
4 | 0.214 nM | 0.00021 s⁻¹ | 980000 M⁻¹ s⁻¹ | 1910G2HzL9H9 (antibody, V domains shown, Only the variable domains are tied to the name; Full chains are not tied to the name; also called humanized antibody 1910G2HzL9H9; 1910G2HzL9 + 1910G2HzH9) VH: EVQLVESGGGLVQPGGSLRLSCAASGFTFSNFWMSWVRQAPGKGLEWVASITHSGGITYYADSVKGRFTISRDDSKNTLYLQMNSLRAEDTAVYYCSRDPTEAPFDYWGQGTLVTVSS VL: DIQMTQSPSSLSASVGDRVTITCQASQNINNYIAWYQQKPGKAPKQLIRYTSTLVSGVPSRFSGSGSGKDFTFTISSLQPEDIATYYCLQYDNVPNTFGQGTKLEIK
5 | 0.452 nM | 0.000477 s⁻¹ | 1.06e+06 M⁻¹ s⁻¹ | 1910G2HzL3H3 (antibody, V domains shown, Only the variable domains are tied to the name; Full chains are not tied to the name; also called humanized antibody 1910G2HzL3H3; 1910G2HzL3 + 1910G2HzH3) VH: EVQLVESGGGLVQPGGSLRLSCAASGFTFSNFWMSWVRQAPGKGLEWVASITHSGGITYYVDSVKGRFTISRDNAKSSLYLQMNSLRAEDTAVYYCSRDPTEAPFDYWGQGVMVTVSS VL: DIQMTQSPSSLSASVGDRVTITCQASQNINNYIAWYQQKPGKAPKQLIRYTSTLVSGTPSRFSGSGSGKDYTFTISNLQPEDIATYYCLQYDNVPNTFGQGTKLEIK
6 | 0.243 nM | 0.00025 s⁻¹ | 1.03e+06 M⁻¹ s⁻¹ | 1910G2HzL2H2 (antibody, V domains shown, Only the variable domains are tied to the name; Captured on an AHC sensor and detected with anti-human secondary antibody; also called humanized antibody 1910G2HzL2H2; 1910G2HzL2 + 1910G2HzH2) VH: EVQLVESGGGLVQPGGSLRLSCAASGFTFSNFWMTWVRQAPGKGLEWVASITHSGGITYYVDSVKGRFTISRDDAKSSLYLQMNSLRAEDTAVYYCSRDPTEAPFDYWGQGTLVTVSS VL: DIQMTQSPSSLSASVGDRVTITCQASQNINNYIAWYQQKPGKAPKQLIRYTSTLVSGVPSRFSGSGSGKDYTFTISSLQPEDIATYYCLQYDNVPNTFGQGTKLEIK
